US20210340245A1 (Janssen / Centocor, published 2021)

B1: GenTNV148.26.12 (antibody, V domains shown)
VH: QVQLVESGGGVVQPGRSLRLSCAASGFIFSSYAMHWVRQAPGNGLEWVAFMSYDGSNKKYADSVKGRFTISRDNPKNTLYLQMNSLRAEDTAVYYCARDRGIAAGGNYYYYGMDVWGQGTTVTVSS
VL: EIVLTQSPATLSLSPGERATLSCRASQSVYSYLAWYQQKPGQAPRLLIYDASNRATGIPARFSGSGSGTDFTLTISSLEPEDFAVYYCQQRSNWPPFTFGPGTKVDIKR
B2: GenTNV86.14.34 (antibody, human IgG1, V domains shown)
VH: B1 VH
VL: EIVLTQSPATLSLSPGERATLSCRASQSVYSYLAWYQQKPGQAPRLLIYDASNRATGIPARFSGSGSGTDFTLTISSLEPEDFAVYYCQQRSNWPPFTFGPGTKVDIK
notes: Totally human IgG1 kappa, hybridoma-derived, tested in cell supernatant; Variable regions identical to TNV148; also called C417A (cell line code)

Columns and labels:
[1] = molecular target: T1, recombinant human TNFα (human, UniProt P01375 77-233, 125I label in the receptor-blocking assay); test: cell-based or functional assay
[2] = molecular target: T1, recombinant human TNFα; test: inhibition of 125I-TNFα binding to plate-coated p55-sf2
Experimental: 50:1 of p55-sf2 at 0.5 :g/ml in PBS was added to Optiplates to coat the wells during a one-hour incubation at 37° C. Serial dilutions of the eight TNV cell supernatants were prepared in 96-well round-bottom plates using PBS/0.1% BSA as diluent. […] The mixture was preincubated for one hour at RT. […] After 2 hrs at RT, Optiplates were washed three times with PBS-Tween. 100 :l of Microscint-20 was added and the cpm bound determined using the TopCount gamma counter.
The concentrations of the TNV mAbs in their respective cell supernatants were first determined by standard ELISA analysis for human IgG.

[3] = molecular target: T1, recombinant human TNFα; test: competition radioligand assay: hybridoma supernatant preincubated with 125I-TNFα (5 ng/ml); binding of TNFα to plate-coated p55-sf2 read as cpm bound

Row | Binder | neutralizing TNFα bioactivity [1] | fold better at blocking TNF binding than TNV118 and TNV14 [2] | IC50 (read off the curve) [3]
1 | B1 | 4 fold | ~4 fold | ~4 ng/mL
2 | B2 | – | ~4 fold | –
